# Assay results published in PMC8062786.
# Target: wild-type SARS-CoV 3CL protease (mature enzyme), as used for analytical ultracentrifugation (SARS-CoV)
# Assay: AUC
substance,measurement,value
"wild-type SARS-CoV 3CL protease (mature enzyme), as used for analytical ultracentrifugation",Kd,0.35 nM
